Experimental data taken from patent publication US20100028995A1, “Tetranectin Trimerizing Polypeptides” (Anaphore, Inc., priority 2004, published 2010).

Assay: Differential scanning calorimetry (VP-DSC) of tetranectin trimerisation domain and deletion peptides
Type: physicochemical
Settings: for TM if N is free: in °C
Procedure: A characterization of the thermal stability of the trimerisation domain of tetranectin was obtained using DSC, both of the full length trimerisation domain and of deletion mutants.
The DSC scans were conducted on a VP-DSC from MicroCal LLC (Northampton, Mass.). For most of the scans a PBS buffer containing 110 mM NaCl and 40 mM NaPO4 was used. The pH was 7.4. The scans were made from 10 to 110° C. under approximately 25 psi at a scan rate of 1° C./min and a pre-scan period of 20 minutes. At least two scans with buffer in both chambers were conducted before removal of buffer from both chambers and the filling with new buffer and protein/peptide solution to the reference and sample chamber respectively.
Peptides were synthesized by an outside vendor and were based on the tetranectin sequence, however, minor modifications were applied. In particular, the residue corresponding to Cys 50 was changed to a Serine. Also, residue number 28 is in native TN polymorphic, being either a Ser or an Ala. In the following experiments, Ala was selected. In addition, the N and C-terminal of the peptides were modified to remove charge and mimic natural peptides, increase stability toward digestion by aminopeptidases and block against synthetase activity. In the N-terminal deletion class peptides the N-terminal is acetylated and the C-terminal is prolonged with a β-Ala and a Cys. For the C-terminal deletion class peptides the modification are amidation of the C-terminal and all the sequences start with Cys-βAla.
Since these peptides were lyophilized from a TFA solution the pH of the redissolved peptides had to be adjusted. This was done using our micro-pH meter from Unisense. The pH was adjusted to the same mV value as found for the buffer by adding small portions of 0.2 M NaOH to the solution immediately followed by mixing. In order to prevent disulphide-bridge dimerisation and possible stabilization of the multimeric structures all scanning of peptides were conducted in 5 mM β-mercaptoethanol. Prior to scanning and addition of β-mercaptoethanol the sample and buffer were extensively degassed under vacuum while stirring.
Trip-A (SEQ ID NO:42) was scanned at concentrations ranging from 2 mM to 0.125 mM, by lowering the concentration by a factor 2. This corresponds to protein concentrations from 12.7 mg-ml to 0.80 mg/mL. […] The difference between the two-state model and the non-2-state model can be stated as that the non-2-state model contains a contribution to the unfolding energy from co-operative stabilization of subunits. This leads to a sharpening of the peak. The parameter introduced relative to the 2-state model is called the ΔHv, or the van't Hoff enthalpy. The ratio between ΔHv and ΔH can be taken as a measurement of the number of subunits in one unfolding unit. The result is shown on FIG. 13 and Table 6. The data is from one representative scan and fitted to the non-2-state model.
The “dissociation with dCp” model describes a system where unfolding and dissociation of a multisubunit protein is simultaneous. The data is from one representative scan and fitted to the “dissociation with dCp” model. The ΔHm and dCp value is per trimer.

[1] = Trip-A 0.125 mM, dissociation with dCp model
[2] = Trip-A 0.125 mM, dissociation with dCp model, per trimer
[3] = Trip-A 0.125 mM, non-2-state model, PBS pH 7.4
[4] = Trip-A 0.25 mM, dissociation with dCp model
[5] = Trip-A 0.25 mM, dissociation with dCp model, per trimer
[6] = Trip-A 0.25 mM, non-2-state model, PBS pH 7.4
[7] = Trip-A 0.5 mM, Down, first scan
[8] = Trip-A 0.5 mM, Down, first scan, per trimer
[9] = Trip-A 0.5 mM, Down, sec. scan, per trimer
[10] = Trip-A 0.5 mM, Up, first scan, per trimer
[11] = Trip-A 0.5 mM, Up, second scan, per trimer
[12] = Trip-A 0.5 mM, dissociation with dCp model
[13] = Trip-A 0.5 mM, dissociation with dCp model, per trimer
[14] = Trip-A 0.5 mM, non-2-state model, PBS pH 7.4
[15] = Trip-A 1.0 mM, dissociation with dCp model
[16] = Trip-A 1.0 mM, dissociation with dCp model, per trimer
[17] = Trip-A 1.0 mM, non-2-state model, PBS pH 7.4
[18] = Trip-A 2.0 mM, dissociation with dCp model
[19] = Trip-A 2.0 mM, dissociation with dCp model, per trimer
[20] = Trip-A 2.0 mM, non-2-state model, PBS pH 7.4

Substance: Trip-A: full length trimerisation domain of tetranectin (SEQ ID NO:42) (SPGTEPPTQKPKKIVNAKKDVVNTKMFEELKARLDTLSQEVALLKEQQALQTVSLKGS)
- Rev. (%) (Table 10, N-terminal deletion peptides, Conc per construct): 97.6%
- ΔHm (kJ/mol(trimer)) (Table 10, N-terminal deletion peptides, dissociation with dCp model, Conc per construct): 319.2 ± 0.4 kJ/mol(trimer)
- TM (° C.) (Table 10, N-terminal deletion peptides, dissociation with dCp model, PBS pH 7.4, Conc per construct 0.32-0.63 (column Conc)): 84.7 ± 0.1 °C
- dCp (kJ/molK) (Table 10, N-terminal deletion peptides, per trimer, Conc per construct): 0.7 ± 0.1 kJ/molK
- Rev. (%) (Table 11, C-terminal deletion peptides, Conc per construct): 97.6%
- ΔHm (kJ/mol(trimer)) (Table 11, C-terminal deletion peptides, dissociation with dCp model, Conc per construct): 319.2 ± 0.4 kJ/mol(trimer)
- TM (° C.) (Table 11, C-terminal deletion peptides, dissociation with dCp model, PBS pH 7.4, Conc per construct 0.4-0.63 (column Conc)): 84.7 ± 0.1 °C
- dCp (kJ/molK) (Table 11, C-terminal deletion peptides, per trimer, Conc per construct): 0.7 ± 0.1 kJ/molK
- Rev. (%) [1]: 98.9%
- TM (° C.) (N = 3) [1]: 82.2 ± 0.3 °C
- N (free) [1]: 1.88
- TM if N is free [1]: 78.9 ± 0.3
- dCp (kJ/molK) [2]: 2.4 ± 0.2 kJ/molK
- ΔHm [2]: 66.2 ± 0.454 kcal/mol
- Reversibility (%) [3]: 94.2%
- TM (° C.) [3]: 73.1 ± 0.03 °C
- ΔH [3]: 15.2 ± 0.048 kcal/mol
- ΔHv [3]: 42.52 ± 0.14 kcal/mol
- ΔHv/ΔH [3]: 2.8
- Rev. (%) [4]: 98.2%
- TM (° C.) (N = 3) [4]: 81.4 ± 0.1 °C
- N (free) [4]: 2.48
- TM if N is free [4]: 81.2 ± 0.1
- dCp (kJ/molK) [5]: 3.3 ± 0.1 kJ/molK
- ΔHm [5]: 68 ± 0.17 kcal/mol
- Reversibility (%) [6]: 95.6%
- TM (° C.) [6]: 75.9 ± 0.1 °C
- ΔH [6]: 12.7 ± 0.096 kcal/mol
- ΔHv [6]: 46.03 ± 0.406 kcal/mol
- ΔHv/ΔH [6]: 3.6
- Rev. (%) [7]: 68.9%
- TM (° C.) (Trip-A 0.5 mM, Down, first scan (refolding), dissociation with dCp model): 79.8 ± 0.1 °C
- N (free) [7]: 0.66
- TM if N is free [7]: 81.4 ± 0.4
- dCp (kJ/molK) [8]: 3.5 ± 0.1 kJ/molK
- ΔHm [8]: -59.51 ± 0.311 kcal/mol
- Rev. (%) (Trip-A 0.5 mM, Down, sec. scan): 85.6%
- TM (° C.) (Trip-A 0.5 mM, Down, sec. scan (refolding), dissociation with dCp model): 80.2 ± 0.2 °C
- N (free) (Trip-A 0.5 mM, Down, sec. scan): 1.45
- TM if N is free (Trip-A 0.5 mM, Down, sec. scan): 85.6 ± 0.3
- dCp (kJ/molK) [9]: 6.9 ± 0.1 kJ/molK
- ΔHm [9]: -40.99 ± 0.526 kcal/mol
- Rev. (%) (Trip-A 0.5 mM, Up, first scan): 94.2%
- N (free) (Trip-A 0.5 mM, Up, first scan): 2.13
- TM if N is free (Trip-A 0.5 mM, Up, first scan): 84.0 ± 0.1
- TM (° C.) (Trip-A 0.5 mM, Up, first scan, dissociation with dCp model): 82.3 ± 0.1 °C
- dCp (kJ/molK) [10]: 1.7 ± 0.1 kJ/molK
- ΔHm [10]: 68.91 ± 0.14 kcal/mol
- Rev. (%) (Trip-A 0.5 mM, Up, second scan): 94.0%
- N (free) (Trip-A 0.5 mM, Up, second scan): 3.7
- TM if N is free (Trip-A 0.5 mM, Up, second scan): 80.3 ± 0.1
- TM (° C.) (Trip-A 0.5 mM, Up, second scan, dissociation with dCp model): 81.7 ± 0.1 °C
- dCp (kJ/molK) [11]: 2.0 ± 0.1 kJ/molK
- ΔHm [11]: 64.89 ± 0.072 kcal/mol
- Rev. (%) [12]: 97.6%
- TM (° C.) (N = 3) [12]: 84.7 ± 0.1 °C
- N (free) [12]: 3.93
- TM if N is free [12]: 83.5 ± 0.1
- dCp (kJ/molK) [13]: 0.67 ± 0.01 kJ/molK
- ΔHm [13]: 76.29 ± 0.096 kcal/mol
- Reversibility (%) [14]: 94.1%
- TM (° C.) [14]: 81.4 ± 0.1 °C
- ΔH [14]: 11.6 ± 0.096 kcal/mol
- ΔHv [14]: 55.59 ± 0.574 kcal/mol
- ΔHv/ΔH [14]: 4.8
- Rev. (%) [15]: 97.6%
- TM (° C.) (N = 3) [15]: 83.2 ± 0.1 °C
- N (free) [15]: 2.21
- TM if N is free [15]: 86.0 ± 0.1
- dCp (kJ/molK) [16]: 0.58 ± 0.02 kJ/molK
- ΔHm [16]: 72.49 ± 0.14 kcal/mol
- Reversibility (%) [17]: 97.7%
- TM (° C.) [17]: 86.5 ± 0.1 °C
- ΔH [17]: 8.82 ± 0.14 kcal/mol
- ΔHv [17]: 65.06 ± 1.29 kcal/mol
- ΔHv/ΔH [17]: 7.4
- Rev. (%) [18]: 95.6%
- TM (° C.) (N = 3) [18]: 85.2 ± 0.4 °C
- N (free) [18]: 5.67
- TM if N is free [18]: 77.0 ± 0.5
- dCp (kJ/molK) [19]: −7.1 ± 0.5 kJ/molK
- ΔHm [19]: 91.9 ± 0.813 kcal/mol
- Reversibility (%) [20]: 105 (!) %
- TM (° C.) [20]: 90.4 ± 0.1 °C
- ΔH [20]: 7.74 ± 0.072 kcal/mol
- ΔHv [20]: 66.9 ± 0.837 kcal/mol
- ΔHv/ΔH [20]: 8.6
- Rev (%) (Trip-A, pH 3.0): 93.1%
- TM (° C.) (Trip-A, pH 3.0 (100 mM NaCl 25 mM NaPO4)): 84.6 ± 0.2 °C
- dCp (kJ/molK) (Trip-A, pH 3.0, per trimer): 11.9 ± 0.3 kJ/molK
- ΔHm (Trip-A, pH 3.0, per trimer): 71.2 ± 0.693 kcal/mol
- Rev (%) (Trip-A, pH 4.0): 88.1%
- TM (° C.) (Trip-A, pH 4.0 (100 mM NaCl 25 mM NaAcetat)): 82.6 ± 0.1 °C
- dCp (kJ/molK) (Trip-A, pH 4.0, per trimer): 0.12 ± 0.07 kJ/molK
- ΔHm (Trip-A, pH 4.0, per trimer): 70.29 ± 0.22 kcal/mol
- Rev (%) (Trip-A, pH 7.4): 97.6%
- TM (° C.) (Trip-A, pH 7.4): 84.7 ± 0.1 °C
- dCp (kJ/molK) (Trip-A, pH 7.4, per trimer): 0.67 ± 0.05 kJ/molK
- ΔHm (Trip-A, pH 7.4, per trimer): 76.29 ± 0.096 kcal/mol
- Tm values (across concentrations 0.125-2 mM, dissociation with dCp model): 81-85 °C
- ΔHm (across concentrations, dissociation with dCp model): approximately 300 kJ/mole
- stability to pH (scans at pH 3.0, 4.0 and 7.4): exhibits stability to pH
